Source: the nanobody polyreactivity screen of Harvey et al. (2022)

Assay: yeast display, Sf9 membrane polyspecificity reagent, FACS + sequencing; frameworks hold sequencing errors
In short: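 Sorting gates, low and high (top ~1%), were placed on anti-HA fluorescence to track expression and on streptavidin fluorescence to track reagent binding. A clone's polyreactivity label is taken from the gate it came out of. The reagent was 10% biotinylated, detergent-solubilized Sf9 membrane, applied for 1 hour at 4 °C to galactose-induced yeast display cells.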

Sequence	polyreactivity (PSR sort gate)
QVQLVESGGGLVQAGGSLRLSCAASGFTFKKNAMGWYRQAPGKERELVAAIRSGTSTKYADSVKGRFTISRDNAKNTVYLQMNSLKPEDTAVYYCAAEEPEYLATWRNRRYDYWGQGTQVTVSS	low polyreactivity
QVHLVESGGGLVQAGGSLRLSCSASGRTFGWNVMGWYRQAPGKERELVAAISGSGGSTYYADSVKGRFTISRDNAKTTVYLQMNSLKPEDTAVYYCAALYGPGREYDYWGQGTQVTVSS	low polyreactivity
QVQLVESGGGLVQAGGSLRLSCAASGTFYWNVMGWYRQAPGKEREFVASITLSGTSTYYADSVKVRFTISRDNAKNTVYLQMNSLKPEDTAVYYCAVAARWPAPVPHYYYWGQGTQVTVSS	low polyreactivity
QVQLVESGGGLVQAGGSHRLSCAASGSTFFRNAKGWYSQAPGKEREWVAANSYSGDSTYYADSVKGRFTISRDNEKNTVSLQMNRLKPDDTAVYYSNAVLFRYRYNYWGQGTQVNVSS	high polyreactivity
QVQLVESGGVLVQAGGSLRLSCAASGLIFSRYVMGWYRQAPGKERELVAAISRSGGSTYYADSVKGRFTISRDNAKNTVYLQMNSLKPEDTAVYYCNKLAPAPEADDYWGQGTQLTVSS	high polyreactivity
QVQLVESGGGLVQAGGSLRLSCAASGIIFRFNGMGWYRQAPGKEREFVAAISGGAGSTYYADSVKGRFTISRDNAKNTVYLQMNSLKPEDTAVYYCAAVWRTRWASGYYWGQGTQVTVSS	high polyreactivity
QVQLVESGGCLVQAGGSLRLSCAASGFIFAYNAMGWYRQAPGKERELVAAISFSGGSTYYADSVKGRFTISRDTANNTVYLQMNSLKPEDTAVYYCAAVRYYWGQGTQVTVSS	high polyreactivity
QVQLVESGGGLVQAGGSLRLSCAASGSIFRRNAMGWYRQAPGKERELVAAINSRGGSTYYADSVKGRFTISRDNAKNTVYLQMNSLKPEDTAVYYCATARFLRYDRYDDYWGQGTQVTVSS	low polyreactivity
QVQHVESGGGLVQAGGSLRLSCAASGIIFIVYAMGWYRQAPGKERELVAAISNGGSTYYADSVKGRFTISRDNAKNTVYLQMNSLKPEDTAVYYCAAGGALASQWSKKLYDYWGQGTQVTVSS	low polyreactivity
QVQLVESGGGLVQAGGSLRLSCAASGSIFPDYAMGRYRQAPGKERELVAGISSNSGSTYYADSVKGRFTISRDNAKNTVYLQMNSLKPEDTAVYYCAKDSFWRDTGYTDGDYWGQGTKVTVSS	low polyreactivity
QVQLVESGGGLVQAGGSLRLSCAASGNIFRVYDMGWYRQAPGKERELVPVIRWSSGRTYYADSVKGRFTISRDNAKNTVYLQMNSLKPEDTAVYYCATKLWRVPRNSHYDSYEYWGQGTQVTVSS	high polyreactivity
QVQLVESGGGLVQAGGSLRLSCAASGSIFDINAMGWYRQAPGKERELVAAISTTSGRTYYADSVKGRFTISRDNAKNTVFLQMNSLKPEDTAVYYCNVSKYVSSYRRGLFNYWGQGTQVTVSS	low polyreactivity
QVQLVESGGGLVQAGGSLRLSCAASGSTFGTYVMGWYRQAPGKERELVAAITYSGGSTYYADSVTGRFTISRDNAKNTVYLQMNSLKPEDTAVYYCNADVWSYWYKFDYWGQGTQVTVSS	high polyreactivity
QGQLVESGGGLVQAGGSLRLSCAASGSSLPYYAMGSYRQAPGKERELVATITDGTDTYYADSVKARFTISRDNAKNTVFLQMNSLKTDDSAVYYCNAYGYVYFLHEDYWGQGTQVTVSS	low polyreactivity
QVQLHESGGGLVQAGGSLRLSCAASGTISQEDWMGWYRKAPRKEREFVAAIGLGSNTNYADSLKGRFTISRDNANNTVYLQMNSLKPEDTAVYYCAVSVWQYSDHVYRGQGTQVTVSS	low polyreactivity
QVQLVESGGGLVQAGGSLRFSCADSGSTFGTYAMGWYRQAPGKERELVAAISWSGGSTYYADSVKGRFTISRDNAKNTVYLQMNSLKPEDTAVYWGQGTQVTVSS	low polyreactivity
QVPLVESGGGLVQAGGSLRISCAACGIIFFPYAMGWYRQAPGKEREFVAAITSRGGSTYYADSVKGRFTISRDNAKNTVYLQMNSLKPEDTAVYFCAADHLGRARGPWRYNYWGQGTQVTVSS	low polyreactivity
QVQLVESGGGLVQAGGSLRLSCAASGYTFQRYAMGRYRQAPGKERELVATISKRGGSTYYADSVKGRFTISRDNAKNTVYLQMNSLKPDDTAVYYCATATPEYRGYWPWQYAGGDYWGQGTQVTVSS	high polyreactivity
QVQLQESGGGLVQAGGSLRLSCAASGNIYDADIMGWYRQAPGKERELVTSITDGGSTNYADSVKGRFTISRDNAKNTVYLQMNSLKPEDTAVYYSAAIAYPDIPTSFDYNSDYSYWGQGTQVTVSS	low polyreactivity
QVQLVESGGGLVQAGGSLRLSCAASGSTFLRYAMGWYRQAPGKERELVATITSGGSTYADSVKGRFTISRDNAKNTVYLQMNSLKPEDTAVYYCAARANTKKPYYYWGQGTQVTVSS	high polyreactivity
QVQLVESGGGLVQAGGSLRLSCAASGRIFERYAMGWYRQAPGKERELVAAISGGGSTYYADSVKGRFTISRDNAKNTVYLQMNSLTPEDTAFYYCNTRGNSRMDYWGQGTQVTVSS	high polyreactivity
QVQLQESGGGLVQAGGSLRLSCAASGNFFDADIMGWYRQAPGKERELVASITDGGSTNYAVSVKGRFTISRGNTKNTVYLLMNCLKPEDTSVYYCAAIAYPDIPTYFDYNSDYFYWGQGTQVTVSS	high polyreactivity

Sequence	polyreactivity (PSR sort gate)
QVQLVESGGGLVQAGGSLRLSCAPSGSTFFLYVMGWYRQAPGKEREWVAAITSGGRTYYADSVKGRFTISRDNAKNTVYLQMNSLKREDTAVYYCAADVRRVRVGKYDYWGQGPQVTVSS	high polyreactivity
QVQLVESGGGLVQAGGSLRLSCAASGNTFYWNAMGWYRQAAGKERELVAAISTTGVSTYYADSVKGRFTISRDNAKNTVYLQMNSLKPEDTAVYYCATVSYYDRYDYDYWGQGTQVTVSS	low polyreactivity
QVQLVESGGGLVQAGGSLRLSCAASGSTFVYNAMGWYRQAPGKERELVAAISRGGGITYYADSVKGRFTISRDNAKNTVYLQMNSLKPEDTAVYYCNKSRYKSYSYDYWGQGTQVTVSS	high polyreactivity
QDQLVESGGGLVQAGGSLRLSCAASGLILHKYAMGWYRQAPGKERELVASINSGANTNYADSVKGRFTISRDNAKNTLYLHLNSLKPEDTAVYYCAADWQQLSYVWRSQRRYNYWGQGTQVTVSS	low polyreactivity
QVQLVESGGGLVQAGGSLRLSCAASGLILDGNAMGWYRTAPGKERELVAAITRSGGRTYYADSVKGRFTISRDNAKNTVYFQMNSLKPEDTAVYYCAALGWSGRYRYDYWGQGTQVTVSS	high polyreactivity
QVQLVESGGGLVQAGGSLRLSCSASGRTFRKYAMGWYRQPPGKESELVAAISWSGGSTYYANSVKGRFTISRDNAKNTVYLQMNSLKPEDTAVYYCAAVPVHTGSLYWGFTTGYDYWGQGTQVTVSS	low polyreactivity
QVQLVESGGGLVQAGCSLRLSCAASGSIFYSNAMGWYRQAPGKERELVAAITRRGGSTYYADSVKGRFTISRDNAKNTVYLQMNSLKPEDTAVYYCYADGSARTPYYYRWYRYGYWGQGTQVSVSS	high polyreactivity
QVQLVESGGGLVQAGGSLRLSCAASGRIFNSYAMGWYRQAPGKERELVAAISWSGSSTYYADSVKGRFTISRDNAKNTVYLQMNSLKPEDTAVYYCAAGTRYFDYWGQGTQVTVSS	high polyreactivity
QVQLVESGGGLVQAGGSLRLSCAASGLILRYNGMGWYRQAPGKERELVAAISSNAGTTSYADSVKGRFTISRDNAKNTVYLQMNSLKPEDTAVYWGQGTQVTVSS	low polyreactivity
QVQLVESGGGLVQAGGSLRLSCAASGSNFQVNAMGWYRQAPGKERELVASIDSSGGSTYYADSVKGRFTISRDNAKNTVYLQMNSLKPEDTAVFYCAAEYHHYYYYWGEYWGQGTQVTVSS	low polyreactivity
QVQLVESGGGLVQAGGSLRLSCAASGSIFFQYGMGWYRQAPGKEREFVAAISVSGGSTYYADSVKGRFTISRDNAKNTVYLQMNSLKPEDTAVYYCAAEFRGDTTSLVYASSYDYWGQGTQVTVSS	low polyreactivity
QVQLVESGGCLVQAGGSLRLSCAASGSIFSSYQMGWYRQAPGKQRELVEAISSGGSTNYADSVKGRFTISRDNAKNTVYLQMHRLKPEDTAVYYCNVDLFNWGGDSTGYDYWGQGTQVTVSS	low polyreactivity
QVQLVESGGGLVQAGGSLRLSCAASGNTFYVNVMGWYRPAPGKEREFVAAISTRGVSTSYADSVKGRFTISRDNAKNTVYFQMNSLKPEDTAVYYGAARYYYRDWVGIISTYYYWGQGTQVTVSS	high polyreactivity
QVQLVESGGGLVQAGGSLRLSCAASGSIFLKYVMGWYRQAPGKERELVAAISFRSGSTYYADSVKGRFTISRDNAKNTVYLQMNSLKPEDTAVYYCAADAWRSYGYRAYDYWGQGTQVTVSS	high polyreactivity
QVQLVESGGGLVQAGGSLRLSCAASGNIFPYYTMGWYRQAPGKERELVAAISSSGSTYYADSVKGRFTISRDNAKNTVYLQMNSLKPEDTAVYYCAARLYPYGWYDYWGQGTQVTVSS	high polyreactivity
QVQLVESGGGLVQAGGSLRLSCAASGYTFGHYAMGWYRQAPGKERELVAVITSGGSTNYADSVKGRFTISRDNAKNTVYLQMNSLKPEDTAVYYCAADLYFYYVWIRDYWGQGTQVTVSS	low polyreactivity
QVQLVESGGGLVQAGGSLRLTCAASGRIIGFNAMGWYRQAPGKERELVASIRTTGGTTYYADSVKGRFTISSDNAKNTVYLQMNSLKPEDTAVYYCAARRYPPRMDYWGQGTQVTVSS	high polyreactivity
QVQLVESGGGLVQAGGSLRLSCAASGSIFQVYAMGWYRQAPGKEREFVAAISYSGGGTYYADSVKGRFTISRDNAKNSVYLQMNSLKPEDTAVYYCAADVSGWEYDYWGQGTQVTVSS	low polyreactivity
QVQLVESGGGLVQAGGSLRLSCAASGFIFYRNPMGWYRQAPGKEREFVAAIRGRGGATYYADSVKGRFTISRDNAKITVYLQMNSLKREDTAVYYCAADTRPGYSGFEYWGQGTQVTVSS	high polyreactivity
QVQLVESGGGLVQAGGSLRISCAASGFTFPYYAMGWYRQAPGKERELVAAISYNGGSTYYADSVKGRFTISRDNAKNTVYLQMNSLKPEDTAVYYCNAVYYDSGVVGYYYWGQGTQVTVSS	high polyreactivity
QVQLVESGGGLVQAGGSLRLSCAASGSIFRYNAMGWYRQAPGKERELVAGITWGGGRTYYADSVKGRFTISRDNAKNTVYLQMNSLKPEDTAVYYCAAVIARPAVQAYLVTKYDYWGQGTQVTVSS	high polyreactivity
